Data from publication PMC10334806 (Proceedings of the National Academy of Sciences of the …, 2023).
Values belong to the binder of their own block, whether it stands above or below them.

Molecular target: T1, GST-MP (MONOPTEROS / AUXIN RESPONSE FACTOR5) (Arabidopsis thaliana, UniProt P93024 1-902)
T1 sequence (looked up): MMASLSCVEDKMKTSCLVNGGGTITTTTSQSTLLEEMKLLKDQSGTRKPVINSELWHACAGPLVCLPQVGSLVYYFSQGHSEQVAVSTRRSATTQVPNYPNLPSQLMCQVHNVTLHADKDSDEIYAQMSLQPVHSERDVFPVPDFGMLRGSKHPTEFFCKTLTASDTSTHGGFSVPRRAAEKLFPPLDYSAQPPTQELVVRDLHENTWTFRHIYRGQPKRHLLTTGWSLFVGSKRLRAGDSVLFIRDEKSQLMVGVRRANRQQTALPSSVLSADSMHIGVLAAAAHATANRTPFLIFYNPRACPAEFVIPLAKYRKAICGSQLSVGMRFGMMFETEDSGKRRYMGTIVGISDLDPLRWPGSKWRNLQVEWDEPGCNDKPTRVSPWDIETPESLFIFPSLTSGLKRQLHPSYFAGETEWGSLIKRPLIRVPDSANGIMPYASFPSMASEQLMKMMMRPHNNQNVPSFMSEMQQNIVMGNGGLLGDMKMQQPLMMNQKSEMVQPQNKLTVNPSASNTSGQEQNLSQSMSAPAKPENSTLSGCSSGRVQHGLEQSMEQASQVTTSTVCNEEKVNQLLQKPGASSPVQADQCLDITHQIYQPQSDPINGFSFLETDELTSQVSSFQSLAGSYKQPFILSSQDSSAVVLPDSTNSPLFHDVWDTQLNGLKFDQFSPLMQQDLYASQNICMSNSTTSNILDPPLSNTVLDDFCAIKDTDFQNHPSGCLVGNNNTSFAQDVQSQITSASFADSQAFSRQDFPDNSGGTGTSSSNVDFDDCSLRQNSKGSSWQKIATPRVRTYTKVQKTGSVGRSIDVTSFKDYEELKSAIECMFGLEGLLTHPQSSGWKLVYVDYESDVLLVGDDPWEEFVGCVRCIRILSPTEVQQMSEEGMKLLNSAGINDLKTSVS
Test: pull-down

- binding result: binds
B1: 6xHis-MBP-DRN (residues 1 to 200, protein-protein interaction domain) (domain or fragment)
chain: not shown

- binding result: binds
B2: 6xHis-MBP-DRNL (DORNROSCHEN-LIKE) (natural protein)
chain: not shown
